Data as given in paper PMC3686320 (Biochemistry, 2013).
Positions count from the first letter of the chain named. Where two headings read alike, the source gives them in different places.

Tests used:
Assay in all cases: AUC
AUC [1] = molecular target: the molecule itself
AUC [2] = molecular target: the molecule itself; remark: listed apart in the source
AUC [3] = molecular target: the molecule itself; remark: listed apart in the source

B1: Escherichia coli primosomal DnaT protein, wild type (natural protein, E. coli, UniProt P0A8J2 1-179, looked up)
chain: MSSRVLTPDVVGIDALVHDHQTVLAKAEGGVVAVFANNAPAFYAVTPARLAELLALEEKLARPGSDVALDDQLYQEPQAAPVAVPMGKFAMYPDWQPDADFIRLAALWGVALREPVTTEELASFIAYWQAEGKVFHHVQWQQKLARSLQIGRASNGGLPKRDVNTVSEPDSQIPPGFRG
stoichiometry N (AUC [1]): 3

B2: isolated N-terminal core domain of the DnaT protein (domain or fragment, E. coli, UniProt P0A8J2 1-161, looked up)
chain: MSSRVLTPDVVGIDALVHDHQTVLAKAEGGVVAVFANNAPAFYAVTPARLAELLALEEKLARPGSDVALDDQLYQEPQAAPVAVPMGKFAMYPDWQPDADFIRLAALWGVALREPVTTEELASFIAYWQAEGKVFHHVQWQQKLARSLQIGRASNGGLPKR
stoichiometry N (AUC [2]): 2

B3: fluorescein-labeled N-terminal core domain of the DnaT variant S3C (domain or fragment, E. coli, UniProt P0A8J2 1-161, looked up)
chain: B2 chain with S3C
modifications: fluorescein (fluorescein maleimide) on the cysteine that replaces serine 3
stoichiometry N (AUC [3]): 2
